From US20060024287A1 (published 2006)

T1: recombinant human full-length TrpRS (SY variant) with C-terminal His6-tag
T1 chain: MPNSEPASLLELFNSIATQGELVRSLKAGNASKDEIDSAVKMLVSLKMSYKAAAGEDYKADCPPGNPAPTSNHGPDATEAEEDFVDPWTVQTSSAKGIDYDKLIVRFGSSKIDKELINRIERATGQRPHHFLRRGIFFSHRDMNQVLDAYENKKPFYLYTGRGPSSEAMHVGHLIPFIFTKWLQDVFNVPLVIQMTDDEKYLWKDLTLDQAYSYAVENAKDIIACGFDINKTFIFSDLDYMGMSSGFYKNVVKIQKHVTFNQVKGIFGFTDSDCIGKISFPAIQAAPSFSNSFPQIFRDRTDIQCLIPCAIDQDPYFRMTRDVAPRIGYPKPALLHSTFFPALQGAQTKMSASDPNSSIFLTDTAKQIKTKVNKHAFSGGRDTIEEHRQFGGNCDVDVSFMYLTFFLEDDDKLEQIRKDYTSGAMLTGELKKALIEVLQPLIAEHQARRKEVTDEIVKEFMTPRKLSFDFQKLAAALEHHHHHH

B1: PMN elastase (protein)
chain: IVGGRRARPHAWPFMVSLQLRGGHFCGATLIAPNFVMSAAHCVANVNVRAVRVVLGAHNLSRREPTRQVFAVQRIFENGYDPVNLLNDIVILQLNGSATINANVQVAQLPAQGRRLGNGVQCLAMGWGLLGRNRGIASVLQELNVTVVTSLCRRSNVCTLVRGRQAGVCFGDSGSPLVCNGLIHGIASFVRGGCASGLYPDAFAPVAQFVNWIDSIIQ
B2: T2-TrpRS (SY variant, without 6-His tag) produced by E. coli expression of the vector of SEQ ID NO: 70 (pAS-001) (other)
chain: SAKGIDYDKLIVRFGSSKIDKELINRIERATGQRPHHFLRRGIFFSHRDMNQVLDAYENKKPFYLYTGRGPSSEAMHVGHLIPFIFTKWLQDVFNVPLVIQMTDDEKYLWKDLTLDQAYSYAVENAKDIIACGFDINKTFIFSDLDYMGMSSGFYKNVVKIQKHVTFNQVKGIFGFTDSDCIGKISFPAIQAAPSFSNSFPQIFRDRTDIQCLIPCAIDQDPYFRMTRDVAPRIGYPKPALLHSTFFPALQGAQTKMSASDPNSSIFLTDTAKQIKTKVNKHAFSGGRDTIEEHRQFGGNCDVDVSFMYLTFFLEDDDKLEQIRKDYTSGAMLTGELKKALIEVLQPLIAEHQARRKEVTDEIVKEFMTPRKLSFDFQ
notes: the entries describe two such monomers associating non-covalently into a dimer; also called T2-TrpRS product

Tests used:
[1] = molecular target: T1, recombinant human full-length TrpRS (SY …)
[2] = molecular target: the molecule itself; assay: SDS-PAGE, unheated against heated samples; band at roughly 86 kDa disappears on heating, band at roughly 43 kD remains

Protein	cleavage seen on 12.5% SDS-polyacrylamide gels [1]	binding result [2]
B1	cleavage of full-length TrpRS (SY variant) by PMN elastase generated a major fragment of about 46 kDa (SEQ ID NO: 25) and a minor fragment of about 43.5 kDa (SEQ ID NO: 24)	
B2		binds
